Experimental data as given in the domain aggregation screens of Martell et al. (2025).

Assay: soluble fraction after stress (log2 fold change); higher = more stays soluble; pooled small domains, quantitative proteomics
Details: stress: pH 4
Procedure, shortened: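 Aggregation propensity is read out as the fold change in how much of each domain remains soluble after acid stress. The custom small-domain libraries were pooled, held at pH 4 and analysed with high-throughput quantitative proteomics. On the log2 scale used, higher values mean more of the domain stayed soluble.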

| Sequence | soluble fraction (log2) |
| --- | --- |
| HMDLQAAWLQTVRHLLAHTEDVGDRFAEEARRIHYGEEPHRGIRGQATPEERLALREEGIETMSIPV | -0.204 |
| HMDLQHQLTPRLKRLRLSGILETLEVRNQQAIAEKWSYVEFLTRLAEDEVERRDHKQLTLRLR | -0.564 |
| HMDLSYPFTTVTTDNVNMRRSASSSSVVLERIDKGDSITVLGTSGNYYKVSYNDRTGYVLKQYVDVSAATT | -0.0312 |
| HMDLTPEEQMDLYRLLDSLPTEERTYLILHYFEERSFPEMAEILSMPEAKLKSRFYRILHRLRAHL | -1.11 |
| HMDLTSDANLKEAKDQILNLLNDGKRHHVTEINKILLPPVQVQEALRFLIHEETVRVDASFLF | -0.083 |
| HMDLVESYDLKIIYTSELINLLIDSSRLEEALNLFKDLKDEIDDVENLGFSAKNNLDYMESKLLHLG | -1.6 |
| HMDLYIILGLERSATLSDVRRAYRRLARKYHPGINPGDRNSASVFTRVSEAYQVLSDPEQRRRYDSR | -0.583 |
| HMDMDRRALLLALINDRYHASVAEFARAINKAPAQVHQWLSGNRALGNAGARDIEIRLNLAQGYFDH | 0.282 |
| HMDMQMPIMNGLEFLERINLTLDDNFSIIVLTGKIEDKSIEKSFELGINAYLRKPFNIYALLGIVRQN | -0.102 |
| HMDMSDFEVVRDMYLTGKVWNAGDIVEAKGITGEVVRKGTNYLSFVDKNGKVHKAWLHEIEL | -0.968 |
| HMDNAILQELYDYYKEDPSLSQSELIISMLTRIQEAVGYVSKDVQEEVARLAGVNRGYVAAIIKNLPHL | -0.963 |
| HMDNEYDKVYQAALSKLEGYPRSSITTAVIKDVVAQTIKYFEIKNFGYEDTIINQLQSAFTVKSSS | 0.0114 |
| HMDNLSESQIKAYSSILSRTHEISDLAENKDYLAFSLWIANILRDPQSVREETAKRVFSALHTNTDFK | -0.793 |
| HMDNMFMPPVNGWDVRQALQKLQNEMGLQVKMEYSPSETITEGYVISYTPIDGMKVEKGDEVTLVISTGPE | -0.675 |
| HMDNMTEMQKAVTALIEKSGGSIDNLSVIYDHLKKKYPSFDLKDYGYSRFSSFLRSMENIMVRGNAVTLRS | 0.0508 |
| HMDNPPDRAEIEQMLKDAGLTPEADAMAALSDLARTLDPGDFRQTLEKITLYKLGDSTPIGLDDIAAGAP | -1.18 |
| HMDNQSIVRINDGDGAWRQRLGEHFGHLPRDRKRGEIVLQVDAADWRWLQTQGYAPRFDAALSAQLQTTL | -0.147 |
| HMDNVLGKSGKVIFVNEEINSYGRAFIPGHGEWNIRTKSDQNIHINDGIKVIERDGITLVVEL | -1.3 |
| HMDNVQLRNFAIKATEASIIYLDQEQRNFFWYNNNKKLMTVPFDENPYSAFAAYLKTDEGSEVYKAIEKKF | -0.504 |
| HMDNWAALLSEREVQVSRLVANGASNKEIADHLAITERTVKAHLTAVFEKLGVRDRLQLSLRVNGL | -1.64 |
| HMDPALSPAEQKIWDLLAAGETHIDDLVRASGLPVATVNSALVMMEMKEVISQVAAKTYRRNRRN | -0.458 |
| HMDPEARRRAILNAAIDVIVEKGAAALTHRAVAARAGVSLGSTTKYFSSIEDLRENAMDALVREMD | -0.756 |
| HMDPEEQIQSREIWEAVERALDGMQEKGRRVVIALLEGQTQLEVSRAAGISQPLISYYLKSFRTKVRTELG | -0.269 |
| HMDPEIADAVNTIKKYLESHYSEVITRKKIEELVHLNQDHINREFKKQTGYTLMEYVQHYRILMAKKMLRV | -0.1 |
| HMDPEQLKIAINTKMPFGKYSGRPLLLLPEPYLVWFKQQGFPDSKLGSQLAMMYEVKLNGLEQMLMPLL | -0.506 |

| Sequence | soluble fraction (log2) |
| --- | --- |
| HMDPERLDQLQNPDPAVRREAIIALGRSKDLAALPELAKVYKNDPVPELRELARQAGRYIQQENRP | 0.254 |
| HMDPFVILGISKDSSQSEILEAYKTKRAYYQEHVFDEGDQGAQAARMLGQLDDAYQQAMELSHE | 0.139 |
| HMDPKISWESDEKLSANIGHYENSIKPLMGNKYLIELSQLKDKIESHPWVARATIKRIFWNKIHIQLESHD | 0.108 |
| HMDPKWSHVRRLLDDENPIVRKALTEELIRSPEEGLAFLEQVIREPDHLLAKHAHNLLSELGWV | 0.0459 |
| HMDPLGHVIKKKRLQLGMTLRDLAAKAGVHHATIDRIETDQFKVVDPSTLVKIAEALHLDQLYLLSLN | -0.532 |
| HMDPLPDEVQEVIDMVDGFKAMDELSEADKADVKAAYDAYNALSAEHKAMVPEHIVTFLNRAYDKLFD | -1.63 |
| HMDPPVDLTPREQQVLSRIALGMSDKAIAAELGVSHQTVRNHVARIYAKIKVHSRSQAIVWAREKGIP | -0.109 |
| HMDPSKMKIDELEIATRTATALADGGIKSVAGLIRKSASALKELDGVGDKAIAEITEALEKLGLELKG | -0.157 |
| HMDPSWVPVFNNLRDAILSHQLLPGTRLAEDELSNIYGLGRTVIRSALGALTHEGLLTHIPNRGVHVAKP | -0.585 |
| HMDPTIAAIRKKLKNWTIVEVHMTREELEQAVIDGKVDVFLSSAGFYRRLVRFGARDLATAMSPAYPD | -0.151 |
| HMDPTYYFNLYPNPSKDEVSLFTNFTGKINIEILDLAGKSILSDNPISTISLVSLKEGLYLVKVKS | -0.337 |
| HMDPYLSGLLQKLAETDKKISFTRLRSEDLDGESREAIYEFIEKYSGRFGVRWLLNEFGLSPSVYYNYLHS | -0.644 |
| HMDQDLGFLINKYFELGKDYNTLVEIYEKIKEYIASIDKKMLEYTKNFTIEQLKKWLDDGTINNIILTLG | -0.382 |
| HMDQEDAYMQVRQVFDTLLVSELSKRIFAWRFFEGKSFAEWPGAESQKFLYDTFNRILLIISAKIRRKNA | -0.522 |
| HMDQHERQQLLIHIAGGEREALAELYQRTRSAVYGLALSYLKNAHDAQDLTRDVYVQVWDRA | 0.0408 |
| HMDQQTKFKTALAALAASAETKDRKLTKADVKEFLEDMDLGEEQMKLVYAYLASKHIHVEGAE | -0.0463 |
| HMDQSIDADIINLNFSKNIIKIEENVYYKNNNAKVNADKIEINIETKKLKISMNEQEDEVEIFAK | -0.399 |
| HMDQTIFFGQQKAINNLSTDAGLSATELDEYLKKRYKRPLYQLTQAEGAEIIKGFQDGALSRSSILDYTK | 0.22 |
| HMDRKFFFNEQYEDYINSDLKVKFMNDSGSKKSFQGELTKVTPSDLFLESEKESVKVPFSSIIQANLI | -0.591 |
| HMDRLTISTLGNGLFRVNGAEAEATVYNLSGNVVKVVPADEVIDLSSLAKGVYIIHVDGEAFKVI | -0.0808 |
| HMDRMFQPETWSKIYQWVMNDPQVPDKEDVLALIRRHFGNFEKLIKLLHYLDGGKPYAYLSEH | 0.411 |
| HMDRSLYVGDAVGFDSARGLMEIEVKNKFSVVAVSLKKKPSGNFITPLLRMEKKKGEAVTVAPGSGHR | -0.141 |
| HMDRSQRDQEQAQLIRLVQQAFDDSGQRYGAEKIRITLAEGGIRVSTKRIAAIMQELDLRSI | 0.251 |
| HMDRSRAEIDLGHVETAIRTLAEGGMVQEYAIGGRSLKRYKMGELLQLKAELENEINMERRKEKMRQ | 0.184 |
| HMDRVDGWLHDGKLYLRVVDYKTGKKSFDLAELRYGLGLQMLLYLFTLKEEGQMLFGGHEIVPAGVL | -0.282 |

| Sequence | soluble fraction (log2) |
| --- | --- |
| HMDRVSEITLTRLRDYAADGQVRTATLTHRTNVVTGTLRDGRRFSAGVPPMYGDELTTFLLDNGVRVDSDN | -0.276 |
| HMDSDMGQQLKTLLTVGTFMSSKELKAIAQQLGLKKPTDLKEWVELESGTQRIEGKPTKGYWIKMNDINN | -0.288 |
| HMDSGINVWASAEGLTITADKDTTVYVYDIYGRTIHTSEVKAGTSDIAINTKGIVIVKANGYTKKII | -0.76 |
| HMDSILSIVGGEESYKALLAWAENNISQQELQQLETILKSGNVPAIKRVLVTLMNRFNQAQS | -0.547 |
| HMDSINGEASISRELHGTRFDQAAAILFPEFSRSRLQAWIGAGALTLDGQTARAKDKVTQGQHLVLAAAVE | -0.536 |
| HMDSINIDEETAKLGPNAPQIIDGIKKWGQGLVAKGVWSDEDFDEFKVFAATSSGINALNKIRKYY | -0.138 |
| HMDSKYLRIFSTLIDEMEKMSPGEQLQSERELSQRFQVSPMTVRRALHKLSTEGYTSAIPGKGTFVRK | -0.0388 |
| HMDSLELADEVGRVSEALQELRPHQREVLELSLVHGRSHQQISEKTGLALGTVKSHARRGLMRVREMLGV | -0.162 |
| HMDSLIEYENERSLRRLINENLSDYERTVWWLYYAGADAAHIAEQTGRSKRSAENAITRVRRKLRALITQS | -0.188 |
| HMDSNISVSEALEMVDKGSVKEIIVEGEKLYITNQDGKQYTSSKEVGVSLIELMKDSGIDPIKSDVNIIVK | -0.703 |
| HMDSRVRHAVLTTLLGKRIVDDLVEKGELPGTPLVLATAPGLDRDLEQLIAQRVVTALLTTV | 0.192 |
| HMDSSALEPIVDQIIADNPKQVEQFQAGKTKVLGFFVGQVMKQTDGTANPKQVNELVAARLKSA | 0.0973 |
| HMDSTDSIIHYVRAHRSLEVKNLSFAEARFKKVVELEPNFARGWLGLGEVSILKNNFENASIYLDKALE | -0.505 |
| HMDSTLTNEIYNELYRAITHQELKPGQNLTLTMLKKQFNVSHTPIREALTRLSADGLVTYHPNKGMKVT | 0.222 |
| HMDSTTHALALVRTLPRDQAEAVLLRVVADLDYADVAEIMGRSPGAVRVLVHRGLRRLEQELATRRT | -0.426 |
| HMDSVEYRVITGDDVNFRKGPSTDYASLGKLNKGYKVEYISETNSWSKVKYNGQTGYVYSKYVAQT | -0.262 |
| HMDSVTVPDISGYSPKAAEDSINNAGLKINEQGLSGSGDGQVVERTSPSAGSKVKKGDSVTVYYSKA | 0.104 |
| HMDTDVFLMDLRGESRDYAEEVLINNNLEVKVIILPFSKRHYPGKVVEMRPSPFTKVKKGRIITLSVAGN | -1.11 |
| HMDTDWDVSGVTPDQYRLLFSVLGGLAGVKDVGLNPDGLRIIHTPEALPSIEKAFQANGLKLKRNVD | -0.899 |
| HMDTETLIDKYQLNASEAAVLRFMDKNRDSLRDLGIRDVARASYVSTATIVNMAKKIGYSGYSELVFAYGS | -0.545 |
| HMDTFSVAIGTKTPDGSSVGEVKTISRDELLLLEDEVAEDPTKEIIFTGGTKDSAQAALDGWIDYNTNLAS | -0.716 |
| HMDTFYKNLSKKIKTIREKLSFSQEALAKELGISRVAISQIENGDRKISAEEIAKLSRVFNVPTDILLN | 0.131 |
| HMDTHDVQVPQEGQGLRLDLFLTDHIEGSRSFIQTIIKDGHVILNGKKAKANSRLNEGDYVVWSIPKPE | -0.37 |
| HMDTHRLNYSDFVAEVQAQRVSKVVIDGYTIVGQRTNGETFETVRPALQDPKLVDDLLQNNVIIEGKQPE | -0.143 |
| HMDTIVHFLSDGRRITVRIKRNARKNIILRPMAADAVSATIPPWLGRRQLSAWLSEREDLLLSVLSRAA | -0.736 |
